The values below come from article PMC8036718, “Two Be or Not Two Be: The Nuclear Autoantigen La/SS-B Is Able to Form Dimers and Oligomers in a Redox Dependent Manner” (International Journal of Molecular Sciences, 2021).

First the molecules themselves.
B8: LaC, C-terminal La fragment aa194-408 (domain or fragment, human, UniProt P05455 194-408, looked up)
chain: EERKQNKVEAKLRAKQEQEAKQKLEEDAEMKSLEEKIGCLLKFSGDLDDQTCREDLHILFSNHGEIKWIDFVRGAKEGIILFKEKAKEALGKAKDANNGNLQLRNKEVTWEVLEGEVEKEALKKIIEDQQESLNKWKSKGRRFKGKGKGNKAAQPGSGKGKVQFQGKKTKFASDDEHDEHDENGATGPVKRAREETDKEEPASKQQKTENGAGDQ

In series [1] the target is T1, full-length human La protein (La 1-408) (human, UniProt P05455 1-408).
T1 construct: Cloned into pET28b; also called La/SS-B; wild-type La protein
T1 sequence (looked up): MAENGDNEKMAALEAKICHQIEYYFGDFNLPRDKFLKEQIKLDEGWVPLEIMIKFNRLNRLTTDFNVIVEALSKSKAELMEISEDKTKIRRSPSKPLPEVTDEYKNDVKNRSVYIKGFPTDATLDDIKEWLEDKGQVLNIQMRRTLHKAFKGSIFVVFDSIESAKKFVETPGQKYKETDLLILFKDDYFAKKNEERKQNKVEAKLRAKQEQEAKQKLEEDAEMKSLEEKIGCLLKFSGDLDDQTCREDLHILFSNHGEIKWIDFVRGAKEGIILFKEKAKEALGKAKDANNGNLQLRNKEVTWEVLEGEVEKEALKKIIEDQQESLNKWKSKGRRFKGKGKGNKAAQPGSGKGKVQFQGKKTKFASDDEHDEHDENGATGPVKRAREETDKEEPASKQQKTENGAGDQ
The experiment in a line: SPR; full-length human La protein (La1-408) covalently linked to the sensor chip; BSA-coupled chip as control; La 1-408 or deletion mutants as analytes. Particulars: both partners purified. (In general: SPR reads the build-up and loss of mass on a sensor chip optically.)

The target in series [2] is B8. Kind of series: far-Western, overlay or dot blot; His-tagged La fragments separated by SDS-PAGE and blotted; after blocking the membrane was incubated with unlabeled full-length La protein (or LaN); bound probe detected with the anti-La mAb SW5 (Figure 5C also with 5B9). Conditions: both partners purified.
Series [3] concerns the molecule itself. Kind of series: non-reducing SDS-PAGE and immunoblotting; purified La proteins as isolated (untreated) or treated with 2 mM CuSO4 (oxidized), sample buffer without ß-mercaptoethanol; blots with anti-La mAb SW5 or 7B6; shows only species held by disulfide bridges. (In general: In western blotting, separated proteins are transferred to a membrane and probed.)
Series [4] concerns the target T1, full-length human La protein (La 1-408). Kind of series: far-Western, overlay or dot blot; His-tagged La fragments separated by SDS-PAGE and blotted; after blocking the membrane was incubated with unlabeled full-length La protein (or LaN); bound probe detected with the anti-La mAb SW5 (Figure 5C also with 5B9). Conditions: both partners purified.

For orientation: stoichiometry N means a count of units in the complex or per binding partner.

B1: La 1-371 (domain or fragment, human, UniProt P05455 1-371, looked up)
chain: MAENGDNEKMAALEAKICHQIEYYFGDFNLPRDKFLKEQIKLDEGWVPLEIMIKFNRLNRLTTDFNVIVEALSKSKAELMEISEDKTKIRRSPSKPLPEVTDEYKNDVKNRSVYIKGFPTDATLDDIKEWLEDKGQVLNIQMRRTLHKAFKGSIFVVFDSIESAKKFVETPGQKYKETDLLILFKDDYFAKKNEERKQNKVEAKLRAKQEQEAKQKLEEDAEMKSLEEKIGCLLKFSGDLDDQTCREDLHILFSNHGEIKWIDFVRGAKEGIILFKEKAKEALGKAKDANNGNLQLRNKEVTWEVLEGEVEKEALKKIIEDQQESLNKWKSKGRRFKGKGKGNKAAQPGSGKGKVQFQGKKTKFASDDEHD
notes: La protein, human, residues 1-371 (holds the Dim domain)
Consider B1, for which the binding result in series [1] is listed as “binds”.

B2: La 239-408 (domain or fragment, human, UniProt P05455 239-408, looked up)
chain: DLDDQTCREDLHILFSNHGEIKWIDFVRGAKEGIILFKEKAKEALGKAKDANNGNLQLRNKEVTWEVLEGEVEKEALKKIIEDQQESLNKWKSKGRRFKGKGKGNKAAQPGSGKGKVQFQGKKTKFASDDEHDEHDENGATGPVKRAREETDKEEPASKQQKTENGAGDQ
B2: the binding result in series [1] is “binds”.

B3: LaN, C-terminally truncated La fragment aa1-192 (domain or fragment, human, UniProt P05455 1-192, looked up)
chain: MAENGDNEKMAALEAKICHQIEYYFGDFNLPRDKFLKEQIKLDEGWVPLEIMIKFNRLNRLTTDFNVIVEALSKSKAELMEISEDKTKIRRSPSKPLPEVTDEYKNDVKNRSVYIKGFPTDATLDDIKEWLEDKGQVLNIQMRRTLHKAFKGSIFVVFDSIESAKKFVETPGQKYKETDLLILFKDDYFAKK
notes: La protein, human, residues 1-192 (La motif plus RRM1 domain); also called La 1-192
Consider B3, for which the binding result in series [2] is recorded as “binds”.

B4: La 1-245 (domain or fragment, human, UniProt P05455 1-245, looked up)
chain: MAENGDNEKMAALEAKICHQIEYYFGDFNLPRDKFLKEQIKLDEGWVPLEIMIKFNRLNRLTTDFNVIVEALSKSKAELMEISEDKTKIRRSPSKPLPEVTDEYKNDVKNRSVYIKGFPTDATLDDIKEWLEDKGQVLNIQMRRTLHKAFKGSIFVVFDSIESAKKFVETPGQKYKETDLLILFKDDYFAKKNEERKQNKVEAKLRAKQEQEAKQKLEEDAEMKSLEEKIGCLLKFSGDLDDQTC
notes: La protein, human, residues 1-245 (lacks the Dim domain)
Consider B4, for which, in series [1], the binding result is “binds”.

B5: mono cysteine mutant of La protein (La_C18A) (natural protein, human, UniProt P05455 1-408, looked up)
chain: MAENGDNEKMAALEAKIAHQIEYYFGDFNLPRDKFLKEQIKLDEGWVPLEIMIKFNRLNRLTTDFNVIVEALSKSKAELMEISEDKTKIRRSPSKPLPEVTDEYKNDVKNRSVYIKGFPTDATLDDIKEWLEDKGQVLNIQMRRTLHKAFKGSIFVVFDSIESAKKFVETPGQKYKETDLLILFKDDYFAKKNEERKQNKVEAKLRAKQEQEAKQKLEEDAEMKSLEEKIGCLLKFSGDLDDQTCREDLHILFSNHGEIKWIDFVRGAKEGIILFKEKAKEALGKAKDANNGNLQLRNKEVTWEVLEGEVEKEALKKIIEDQQESLNKWKSKGRRFKGKGKGNKAAQPGSGKGKVQFQGKKTKFASDDEHDEHDENGATGPVKRAREETDKEEPASKQQKTENGAGDQ
notes: La protein, human, with Cys18 changed to alanine; Runs as 50 kDa La protein
As for B5, the binding result in series [3] is listed as “binds”.

B6: double cysteine mutant of La protein (La_C232A_C245A) (natural protein, human, UniProt P05455 1-408, looked up)
chain: MAENGDNEKMAALEAKICHQIEYYFGDFNLPRDKFLKEQIKLDEGWVPLEIMIKFNRLNRLTTDFNVIVEALSKSKAELMEISEDKTKIRRSPSKPLPEVTDEYKNDVKNRSVYIKGFPTDATLDDIKEWLEDKGQVLNIQMRRTLHKAFKGSIFVVFDSIESAKKFVETPGQKYKETDLLILFKDDYFAKKNEERKQNKVEAKLRAKQEQEAKQKLEEDAEMKSLEEKIGALLKFSGDLDDQTAREDLHILFSNHGEIKWIDFVRGAKEGIILFKEKAKEALGKAKDANNGNLQLRNKEVTWEVLEGEVEKEALKKIIEDQQESLNKWKSKGRRFKGKGKGNKAAQPGSGKGKVQFQGKKTKFASDDEHDEHDENGATGPVKRAREETDKEEPASKQQKTENGAGDQ
notes: La protein, human, with Cys232 and Cys245 changed to alanine
On to B6, for which, in series [3], the “stoichiometry N” value came to 2.

B7: La 278-408 (domain or fragment, human, UniProt P05455 278-408, looked up)
chain: KAKEALGKAKDANNGNLQLRNKEVTWEVLEGEVEKEALKKIIEDQQESLNKWKSKGRRFKGKGKGNKAAQPGSGKGKVQFQGKKTKFASDDEHDEHDENGATGPVKRAREETDKEEPASKQQKTENGAGDQ
Consider B7, for which the binding result in series [1] is “binds”.
Regarding B8, the binding result in series [4] is listed as “binds”.
